# Results taken from paper PMC8022203 (ACS infectious diseases, 2021).
# Legend:
# [1] = system: CC(=O)Nc1ccc(/C=N/NC(N)=S)cc1; experiment: purified protein; conditions: pH 8.0; 37.0 °C
# [2] = system: CCN(CC)c1ccc2cc(-c3ccc(/C=N/NC(N)=S)s3)c(=O)oc2c1; experiment: purified protein; conditions: pH 8.0; 37.0 °C
substance,measurement,setting,value
EthA (Mycobacterium tuberculosis H37Rv),Km,[1],153 ± 11 µM
same,Km,[2],16 ± 2 µM
